Series [1] relates to HeLa Kyoto. Kind of series: solubility in G1/S (NP-40 vs SDS abundance) (log2 ratio); higher = more soluble. The following applies: cell cycle stage: G1/S.
For series [2], the system named is HeLa Kyoto. Kind of series: melting temperature (median over replicates), in situ; higher = more thermally stable.
Series [3] concerns HeLa Kyoto. Briefly: solubility change mitosis vs G1/S (difference of NP-40 vs SDS log2 ratios) (log2 ratio difference); higher = more soluble in mitosis.
Series [4] has as its system HeLa Kyoto. Kind of series: thermal stability score vs G1/S (z-score of summed log2 fold changes over temperatures); higher = more thermally stable than in G1/S.
[5] abbreviates: cell cycle stage: early G1 (4.5 h after nocodazole release).

The record followed here is the supplement of paper PMC5998384.
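Wherever melting temperature (median over replicates), in situ is given: HeLa Kyoto cells synchronized by double thymidine or nocodazole block, proteins quantified by TMT10plex mass spectrometry, three independent biological replicates.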
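Wherever solubility change mitosis vs G1/S (difference of NP-40 vs SDS log2 ratios) is given: synchronized HeLa Kyoto cells (double thymidine block for G1/S, nocodazole release for mitosis), protein amounts in NP-40 versus SDS lysates quantified by mass spectrometry, three biological replicates.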
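Wherever solubility in G1/S (NP-40 vs SDS abundance) is given: HeLa Kyoto cells arrested at G1/S by double thymidine block, proteins quantified by TMT10plex mass spectrometry in mild NP-40 versus SDS extracts, three biological replicates.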
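Wherever thermal stability score vs G1/S (z-score of summed log2 fold changes over temperatures) is given: synchronized HeLa Kyoto cells, proteins quantified by TMT10plex mass spectrometry, three biological replicates, mitosis taken 0.5 h after nocodazole release, G1/S directly after double thymidine block.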

Turning to “MTQQPLRGVTSLRFNQDQSCFCCAMETGVRIYNVEPLMEKGHLDHEQVGSMGLVEMLHRSNLLALVGGGSSPKFSEISVLIWDDAREGKDSKEKLVLEFTFTKPVLSVRMRHDKIVIVLKNRIYVYSFPDNPRKLFEFDTRDNPKGLCDLCPSLEKQLLVFPGHKCGSLQLVDLASTKPGTSSAPFTINAHQSDIACVSLNQPGTVVASASQKGTLIRLFDTQSKEKLVELRRGTDPATLYCINFSHDSSFLCASSDKGTVHIFALKDTRLNRRSALARVGKVGPMIGQYVDSQWSLASFTVPAESACICAFGRNTSKNVNSVIAICVDGTFHKYVFTPDGNCNREAFDVYLDICDDDDF [WDR45]”, in the series with HeLa Kyoto [1], the “solubility in G1/S (log2)” value was -0.26. In addition, the melting temperature in the series with HeLa Kyoto [2] (cell cycle stage: G1/S) stood at 53.4 °C; in the series on HeLa Kyoto [2] (cell cycle stage: mitosis), 53.6 °C. Moreover, in the series on HeLa Kyoto [3], the “solubility change mitosis (log2)” value was -0.0635. For the same sequence, the thermal stability score in the series on HeLa Kyoto [4] (setting [5]) was -0.724; with HeLa Kyoto [4] (cell cycle stage: mitosis) it was -0.704.
For “MTRHGKNCTAGAVYTYHEKKKDTAASGYGTQNIRLSRDAVKDFDCCCLSLQPCHDPVVTPDGYLYEREAILEYILHQKKEIARQMKAYEKQRGTRREEQKELQRAASQDHVRGFLEKESAIVSRPLNPFTAKALSGTSPDDVQPGPSVGPPSKDKDKVLPSFWIPSLTPEAKATKLEKPSRTVTCPMSGKPLRMSDLTPVHFTPLDSSVDRVGLITRSERYVCAVTRDSLSNATPCAVLRPSGAVVTLECVEKLIRKDMVDPVTGDKLTDRDIIVLQRGGTGFAGSGVKLQAEKSRPVMQA [NOSIP]”, the “solubility in G1/S (log2)” value in the series with HeLa Kyoto [1] was found to be 0.262. Also, the melting temperature in the series with HeLa Kyoto [2] (cell cycle stage: G1/S) came to 45.8 °C; in the series with HeLa Kyoto [2] (cell cycle stage: mitosis), 47.8 °C. Further, the “solubility change mitosis (log2)” value in the series with HeLa Kyoto [3] was -0.163. In addition, the thermal stability score came to 4.16 in the series with HeLa Kyoto [4] (setting [5]) and 6.51 in the series with HeLa Kyoto [4] (cell cycle stage: mitosis).
Consider “MTSELDIFVGNTTLIDEDVYRLWLDGYSVTDAVALRVRSGILEQTGATAAVLQSDTMDHYRTFHMLERLLHAPPKLLHQLIFQIPPSRQALLIERYYAFDEAFVREVLGKKLSKGTKKDLDDISTKTGITLKSCRRQFDNFKRVFKVVEEMRGSLVDNIQQHFLLSDRLARDYAAIVFFANNRFETGKKKLQYLSFGDFAFCAELMIQNWTLGAVGEAPTDPDSQMDDMDMDLDKEFLQDLKELKVLVADKDLLDLHKSLVCTALRGKLGVFSEMEANFKNLSRGLVNVAAKLTHNKDVRDLFVDLVEKFVEPCRSDHWPLSDVRFFLNQYSASVHSLDGFRHQALWDRYMGTLRGCLLRLYHD [FIBP]”, for which the “solubility in G1/S (log2)” value in the series on HeLa Kyoto [1] was -0.45. The melting temperature in the series on HeLa Kyoto [2] (cell cycle stage: G1/S) is 50.3 °C; in the series on HeLa Kyoto [2] (cell cycle stage: mitosis), 49.5 °C. Also, in the series with HeLa Kyoto [3], the “solubility change mitosis (log2)” value is -0.13. The thermal stability score was -0.876 in the series with HeLa Kyoto [4] (setting [5]) and 0.233 in the series with HeLa Kyoto [4] (cell cycle stage: mitosis).
As for “MTSFRLALIQLQISSIKSDNVTRACSFIREAATQGAKIVSLPECFNSPYGAKYFPEYAEKIPGESTQKLSEVAKECSIYLIGGSIPEEDAGKLYNTCAVFGPDGTLLAKYRKIHLFDIDVPGKITFQESKTLSPGDSFSTFDTPYCRVGLGICYDMRFAELAQIYAQRGCQLLVYPGAFNLTTGPAHWELLQRSRAVDNQVYVATASPARDDKASYVAWGHSTVVNPWGEVLAKAGTEEAIVYSDIDLKKLAEIRQQIPVFRQKRSDLYAVEMKKP [NIT2]”, in the series with HeLa Kyoto [1], the “solubility in G1/S (log2)” value was found to be 0.178. In addition, the melting temperature is 54.5 °C in the series with HeLa Kyoto [2] (cell cycle stage: G1/S) and 54.4 °C in the series on HeLa Kyoto [2] (cell cycle stage: mitosis). Also, the “solubility change mitosis (log2)” value in the series with HeLa Kyoto [3] is -0.0539. For the same sequence, the thermal stability score was -0.442 in the series on HeLa Kyoto [4] (setting [5]) and -1.62 in the series with HeLa Kyoto [4] (cell cycle stage: mitosis).
As for “MTSRSTARPNGQPQASKICQFKLVLLGESAVGKSSLVLRFVKGQFHEYQESTIGAAFLTQSVCLDDTTVKFEIWDTAGQERYHSLAPMYYRGAQAAIVVYDITNQETFARAKTWVKELQRQASPSIVIALAGNKADLANKRMVEYEEAQAYADDNSLLFMETSAKTAMNVNDLFLAIAKKLPKSEPQNLGGAAGRSRGVDLHEQSQQNKSQCCSN [RAB5B]”, in the series with HeLa Kyoto [1], the “solubility in G1/S (log2)” value turned out to be 0.23. In addition, the melting temperature with HeLa Kyoto [2] (cell cycle stage: G1/S) was determined as 57.4 °C; in the series with HeLa Kyoto [2] (cell cycle stage: mitosis), 58.2 °C. For the same sequence, the “solubility change mitosis (log2)” value in the series on HeLa Kyoto [3] is -0.207. In addition, the values for the thermal stability score in the series on HeLa Kyoto [4] (setting [5]) and with HeLa Kyoto [4] (cell cycle stage: mitosis) were -0.307 and -2.64, respectively.
Turning to “MTSSGPGPRFLLLLPLLLPPAASASDRPRGRDPVNPEKLLVITVATAETEGYLRFLRSAEFFNYTVRTLGLGEEWRGGDVARTVGGGQKVRWLKKEMEKYADREDMIIMFVDSYDVILAGSPTELLKKFVQSGSRLLFSAESFCWPEWGLAEQYPEVGTGKRFLNSGGFIGFATTIHQIVRQWKYKDDDDDQLFYTRLYLDPGLREKLSLNLDHKSRIFQNLNGALDEVVLKFDRNRVRIRNVAYDTLPIVVHGNGPTKLQLNYLGNYVPNGWTPEGGCGFCNQDRRTLPGGQPPPRVFLAVFVEQPTPFLPRFLQRLLLLDYPPDRVTLFLHNNEVFHEPHIADSWPQLQDHFSAVKLVGPEEALSPGEARDMAMDLCRQDPECEFYFSLDADAVLTNLQTLRILIEENRKVIAPMLSRHGKLWSNFWGALSPDEYYARSEDYVELVQRKRVGVWNVPYISQAYVIRGDTLRMELPQRDVFSGSDTDPDMAFCKSFRDKGIFLHLSNQHEFGRLLATSRYDTEHLHPDLWQIFDNPVDWKEQYIHENYSRALEGEGIVEQPCPDVYWFPLLSEQMCDELVAEMEHYGQWSGGRHEDSRLAGGYENVPTVDIHMKQVGYEDQWLQLLRTYVGPMTESLFPGYHTKARAVMNFVVRYRPDEQPSLRPHHDSSTFTLNVALNHKGLDYEGGGCRFLRYDCVISSPRKGWALLHPGRLTHYHEGLPTTWGTRYIMVSFVDP [PLOD3]”, in the series with HeLa Kyoto [1], the “solubility in G1/S (log2)” value is -0.074. Further, the melting temperature with HeLa Kyoto [2] (cell cycle stage: G1/S) stood at 54.2 °C; in the series with HeLa Kyoto [2] (cell cycle stage: mitosis), 55 °C. Moreover, the “solubility change mitosis (log2)” value in the series on HeLa Kyoto [3] came out at 0.039. Further, the thermal stability score with HeLa Kyoto [4] (setting [5]) worked out at 2.65; in the series with HeLa Kyoto [4] (cell cycle stage: mitosis) it was 3.82.
